# Reference: patent publication US20200157212A1 (Pfizer, published 2020)
# T1: Human ROBO2 overexpressed on HEK293 cells (human, UniProt Q9HCK4 22-1378)
# T1 construct: also called ROBO2 cells; native ROBO2
# T1 sequence: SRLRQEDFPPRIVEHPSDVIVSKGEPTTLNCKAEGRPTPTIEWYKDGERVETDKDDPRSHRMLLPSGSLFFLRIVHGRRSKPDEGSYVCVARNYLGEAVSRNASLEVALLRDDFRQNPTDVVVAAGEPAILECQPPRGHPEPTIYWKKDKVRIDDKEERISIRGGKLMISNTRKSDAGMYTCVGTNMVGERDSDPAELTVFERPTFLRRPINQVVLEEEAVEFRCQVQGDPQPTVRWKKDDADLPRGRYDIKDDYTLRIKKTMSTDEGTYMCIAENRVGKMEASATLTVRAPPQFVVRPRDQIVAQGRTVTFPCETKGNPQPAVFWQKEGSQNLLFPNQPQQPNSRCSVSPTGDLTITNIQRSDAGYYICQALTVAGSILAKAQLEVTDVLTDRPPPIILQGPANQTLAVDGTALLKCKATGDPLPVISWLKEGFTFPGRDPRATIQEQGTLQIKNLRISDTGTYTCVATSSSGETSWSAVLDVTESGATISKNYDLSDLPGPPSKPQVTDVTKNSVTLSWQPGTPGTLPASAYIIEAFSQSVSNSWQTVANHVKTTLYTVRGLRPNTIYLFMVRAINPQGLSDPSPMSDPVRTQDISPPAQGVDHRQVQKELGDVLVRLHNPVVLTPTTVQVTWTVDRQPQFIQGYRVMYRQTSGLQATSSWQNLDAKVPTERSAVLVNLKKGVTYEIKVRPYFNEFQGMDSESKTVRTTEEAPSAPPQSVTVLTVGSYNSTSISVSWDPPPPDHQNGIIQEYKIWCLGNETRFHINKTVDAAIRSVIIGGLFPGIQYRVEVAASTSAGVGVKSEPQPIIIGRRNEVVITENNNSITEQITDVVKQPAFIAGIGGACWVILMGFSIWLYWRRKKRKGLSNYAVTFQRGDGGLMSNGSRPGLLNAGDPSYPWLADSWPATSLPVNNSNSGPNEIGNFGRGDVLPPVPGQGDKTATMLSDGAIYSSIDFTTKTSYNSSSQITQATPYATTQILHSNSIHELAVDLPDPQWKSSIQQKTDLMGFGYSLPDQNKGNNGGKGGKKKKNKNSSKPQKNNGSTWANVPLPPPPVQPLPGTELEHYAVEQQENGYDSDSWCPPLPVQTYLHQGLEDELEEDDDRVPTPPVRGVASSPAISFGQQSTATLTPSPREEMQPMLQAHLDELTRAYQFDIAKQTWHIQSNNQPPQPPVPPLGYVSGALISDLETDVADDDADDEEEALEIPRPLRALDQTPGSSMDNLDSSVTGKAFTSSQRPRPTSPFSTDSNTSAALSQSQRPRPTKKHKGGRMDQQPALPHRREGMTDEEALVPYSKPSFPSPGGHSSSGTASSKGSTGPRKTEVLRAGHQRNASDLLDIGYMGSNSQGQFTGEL
# Tests used:
# [1] = target: T1, Human ROBO2 overexpressed on HEK293 …; assay: flow cytometry, Geo MFI ROBO2/ROBO1 HEK293 cells, 2.5 µg/ml
# Procedure: Binding of the antibodies was detected using a secondary fluorochrome conjugated anti-human IgG F(ab′)₂ antibody and samples were analyzed on a Fortessa cytometer (BD Biosciences). The fold ROBO2 selectivity was calculated as the geometric mean fluorescence intensity (Geo MFI) with ROBO2 cells/Geo MFI with ROBO1 cells. A fold change higher than 3 was considered to be ROBO2 specific (Table 2, Fold Selectivity). Some affinity matured clones had increased ROBO1 reactivity, for example Abcs 55, CTI-R2-10 and CTIR2-13.
# HTRF assays were run with 5 nM d2-labeled SLIT2-N and antibodies were added at 1 nM. […] Antibodies derived from chain (Abcs series) or CDR shuffling (CTIR-2 series) were evaluated in 11-point, 5-fold dilution series with a top concentration of 1500 nM, N.T. = not tested; ^cFold selectivity was calculated as Geometric Mean Fluorescent Intensity (Geo MFI) of ROBO2/Geo MFI of ROBO1 binding. […] Outcomes: results are listed in order of assays listed in the table (left to right), I.A. = Improved Affinity
# [2] = target: T2, Human ROBO1 RSK mutant overexpressed on HEK293 cells (human, UniProt Q9Y6N7 26-1651); assay: flow cytometry, Geo MFI ROBO1-RSK/ROBO2-KSR HEK293 cells, 2.5 µg/ml
# T2 construct: K137R and R139K already in the entry; also called ROBO1-RSK cells
# T2 sequence (Q9Y6N7 other isoform, or with tags, fused parts or gaps mutant limits assumed): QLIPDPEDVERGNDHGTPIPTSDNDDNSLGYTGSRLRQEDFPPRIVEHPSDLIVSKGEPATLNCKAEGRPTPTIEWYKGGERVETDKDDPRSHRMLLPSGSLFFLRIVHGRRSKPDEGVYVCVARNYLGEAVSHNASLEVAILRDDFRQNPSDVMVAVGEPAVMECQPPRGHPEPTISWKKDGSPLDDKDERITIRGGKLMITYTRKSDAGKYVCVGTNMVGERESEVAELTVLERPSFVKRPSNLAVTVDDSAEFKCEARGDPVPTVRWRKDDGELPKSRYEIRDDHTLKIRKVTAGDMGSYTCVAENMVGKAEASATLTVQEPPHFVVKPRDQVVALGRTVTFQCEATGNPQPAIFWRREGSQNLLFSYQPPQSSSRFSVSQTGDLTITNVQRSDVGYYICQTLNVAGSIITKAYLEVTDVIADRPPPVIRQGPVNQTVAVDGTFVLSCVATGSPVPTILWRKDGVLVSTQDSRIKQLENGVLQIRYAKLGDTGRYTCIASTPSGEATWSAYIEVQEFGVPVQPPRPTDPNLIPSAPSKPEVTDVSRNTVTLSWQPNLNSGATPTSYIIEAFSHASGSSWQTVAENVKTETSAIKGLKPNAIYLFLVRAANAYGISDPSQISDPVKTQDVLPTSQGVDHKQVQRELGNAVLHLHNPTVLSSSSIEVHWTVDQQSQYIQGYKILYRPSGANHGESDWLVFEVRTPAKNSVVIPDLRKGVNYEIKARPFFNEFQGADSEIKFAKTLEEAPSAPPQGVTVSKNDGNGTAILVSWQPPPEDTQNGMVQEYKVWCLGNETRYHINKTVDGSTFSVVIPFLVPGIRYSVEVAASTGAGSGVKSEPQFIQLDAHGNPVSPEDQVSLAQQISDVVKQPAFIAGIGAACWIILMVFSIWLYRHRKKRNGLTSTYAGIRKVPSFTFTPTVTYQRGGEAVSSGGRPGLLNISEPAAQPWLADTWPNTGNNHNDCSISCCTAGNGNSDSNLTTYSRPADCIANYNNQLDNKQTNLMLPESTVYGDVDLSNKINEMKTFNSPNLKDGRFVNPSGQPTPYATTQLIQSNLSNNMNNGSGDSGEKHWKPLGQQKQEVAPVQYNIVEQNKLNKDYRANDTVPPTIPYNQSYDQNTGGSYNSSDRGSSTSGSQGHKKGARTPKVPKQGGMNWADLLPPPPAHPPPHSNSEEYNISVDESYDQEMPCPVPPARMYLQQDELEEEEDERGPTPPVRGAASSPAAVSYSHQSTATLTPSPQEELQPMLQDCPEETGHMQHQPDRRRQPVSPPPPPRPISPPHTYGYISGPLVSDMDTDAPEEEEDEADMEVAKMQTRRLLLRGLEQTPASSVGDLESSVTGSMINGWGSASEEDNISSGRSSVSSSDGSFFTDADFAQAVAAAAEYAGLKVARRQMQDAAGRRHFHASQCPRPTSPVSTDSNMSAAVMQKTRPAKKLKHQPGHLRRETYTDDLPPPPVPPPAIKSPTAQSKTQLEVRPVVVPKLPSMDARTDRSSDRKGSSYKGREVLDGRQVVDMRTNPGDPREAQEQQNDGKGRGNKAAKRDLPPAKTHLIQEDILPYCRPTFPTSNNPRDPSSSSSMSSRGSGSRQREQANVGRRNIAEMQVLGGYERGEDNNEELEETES
Binder,Fold Selectivity for ROBO2/ROBO1 [1],Fold Selectivity for RSK/KSR [2]
"Abcs20 (antibody, human IgG1, kappa, V domains shown, chain-shuffled IgG) VH: EVQLVQSGAEVKKPGASVKVSCKASGYTFTGYYMHWVRQAPGQGLEWMGWINPKNGDTEFPQKFQGRVTMTRDTSITTAYMDLSRLRSDDTAVYYCARESGDDAFDIWGQGTMVTVSS VL: DIVMTQSPSSLSASVGDRVTITCRASQSISSYLNWYQQKPGKAPKLLIYAASSLQSGVPSRFSGSGSGTDFTLTISSLQPEDFATYYCQQSVGLSFGGGTKVEIKR",5.2 fold,7 fold
"Abcs25 (antibody, human IgG1, kappa, V domains shown, chain-shuffled IgG) VH: EVQLVQSGAEVKKPGASVKVSCKASGYTFTGYYMHWVRQAPGQGLEWMGWINPKDGDTEFPQKFQGRVTMTRDTSITTAYMDLSRLRSDDTAVYYCARESGDDAFDIWGQGTMVTVSS VL: DIVMTQSPSSLSASVGDRVTITCRASQSISSYLNWYQQKPGKAPKLLIYAASSLQSGVPSRFSGSGSGTDFTLTISSLQPEDFATYYCQQSVGLSFGGGTKVEIKR",3.3 fold,8.1 fold
"Abcs35 (antibody, human IgG1, kappa, fully human IgG1; VH of Ab96 with VL of Ab123) heavy: EVQLVQSGAEVKKPGASVKVSCKASGYTFTGYYMHWVRQAPGQGLEWMGWINPKNGDTEFPQKFQGRVTMTRDTSITTAYMDLSRLRSDDTAVYYCARESGDDAFDIWGQGTMVTVSSASTKGPSVFPLAPSSKSTSGGTAALGCLVKDYFPEPVTVSWNSGALTSGVHTFPAVLQSSGLYSLSSVVTVPSSSLGTQTYICNVNHKPSNTKVDKKVEPKSCDKTHTCPPCPAPEAAGAPSVFLFPPKPKDTLMISRTPEVTCVVVDVSHEDPEVKFNWYVDGVEVHNAKTKPREEQYNSTYRVVSVLTVLHQDWLNGKEYKCKVSNKALPAPIEKTISKAKGQPREPQVYTLPPSREEMTKNQVSLTCLVKGFYPSDIAVEWESNGQPENNYKTTPPVLDSDGSFFLYSKLTVDKSRWQQGNVFSCSVMHEALHNHYTQKSLSLSPGK light: DIVMTQSPSSLSASVGDRVTITCRASQSISSYLNWYQQKPGKAPKLLIYAASSLQSGVPSRFSGSGSGTDFTLTISSLQPEDFATYYCQQSVGLFFGGGTKVEIKRTVAAPSVFIFPPSDEQLKSGTASVVCLLNNFYPREAKVQWKVDNALQSGNSQESVTEQDSKDSTYSLSSTLTLSKADYEKHKVYACEVTHQGLSSPVTKSFNRGEC",4.8 fold,6.6 fold
"Abcs40 (antibody, human IgG1, kappa, V domains shown, chain-shuffled IgG) VH: EVQLVQSGAEVKKPGASVKVSCKASGYTFTGYYMHWVRQAPGQGLEWMGWINPKDGDTEFPQKFQGRVTMTRDTSITTAYMDLSRLRSDDTAVYYCARESGDDAFDIWGQGTMVTVSS VL: DIVMTQSPSSLSASVGDRVTITCRASQSISSYLNWYQQKPGKAPKLLIYAASSLQSGVPSRFSGSGSGTDFTLTISSLQPEDFATYYCQQSVGLFFGGGTKVEIKR",4.8 fold,9.3 fold
"Abcs55 (antibody, human IgG1, kappa, V domains shown, chain-shuffled IgG) VH: EVQLVQSGAEVKKPGASVKVSCKASGYTFTGYYMHWVRQAPGQGLEWMGWINPKDGDTEFPQKFQGRVTMTRDTSITTAYMDLSRLRSDDTAVYYCARESGDDAFDIWGQGTMVTVSS VL: DIVMTQSPSSLSASVGDRVTITCRASQSISSYLNWYQQKPGKAPKLLIYAASSLQYGVPSRFSGSGSGTDFTLTISSLQPEDFATYYCQQSYSTSFGGGTKVEIKR",1.5 fold,1.5 fold

# Second part, the binder after the results:
Fold Selectivity for ROBO2/ROBO1 [1],Fold Selectivity for RSK/KSR [2],Binder
12.1 fold,> 100 fold,"CTIR2-15 (antibody, human IgG1, kappa, V domains shown, CDR-shuffled IgG) VH: EVQLVQSGAEVKKPGASVKVSCKASGYTFRGYAMHWVRQAPGQGLEWMGWIDPRTGLTKFPQKFQGRVTMTRDTSITTAYMDLSRLRSDDTAVYYCARESGDDAFDIWGQGTMVTVSS VL: DIVMTQSPSSLSASVGDRVTITCRASQKISSYLNWYQQKPGKAPKLLIYAASSLQYGVPSRFSGSGSGTDFTLTISSLQPEDFATYYCQQSVGLSFGGGTKVEIKR"
6.2 fold,66.5 fold,"CTIR2-16 (antibody, human IgG1, kappa, V domains shown, CDR-shuffled IgG) VH: EVQLVQSGAEVKKPGASVKVSCKASGYTFRGYAMHWVRQAPGQGLEWMGWIDPRTGLTKFPQKFQGRVTMTRDTSITTAYMDLSRLRSDDTAVYYCARESGDDAFDIWGQGTMVTVSS VL: DIVMTQSPSSLSASVGDRVTITCRASQKISSYLNWYQQKPGKAPKLLIYAASSLQYGVPSRFSGSGSGTDFTLTISSLQPEDFATYYCQQSVGLFFGGGTKVEIKR"
23.9 fold,> 100 fold,"CTIR2-14 (antibody, human IgG1, kappa, V domains shown, CDR-shuffled IgG) VH: EVQLVQSGAEVKKPGASVKVSCKASGYTFRGYAMHWVRQAPGQGLEWMGWIDPRTGLTKFPQKFQGRVTMTRDTSITTAYMDLSRLRSDDTAVYYCARESGDDAFDIWGQGTMVTVSS VL: DIVMTQSPSSLSASVGDRVTITCRASQKISSYLNWYQQKPGKAPKLLIYAASSLQYGVPSRFSGSGSGTDFTLTISSLQPEDFATYYCQQSLELGFGGGTKVEIKR"
